Blank lines part the entries; values can stand above or below the binder they belong to.
What was measured:
[1] = target: T1, HM1.24 antigen on a Biacore chip (UniProt Q10589 49-161, limits assumed); assay: SPR (Biacore), 100 nM mAb-Fv injected over a HM1.24 chip
T1 construct: also called HM1.24 chip
T1 sequence (looked up): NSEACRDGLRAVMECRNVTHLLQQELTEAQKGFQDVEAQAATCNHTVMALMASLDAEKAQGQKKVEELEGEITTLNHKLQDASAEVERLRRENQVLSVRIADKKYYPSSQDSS

[2] = target: T2, FcγRIIIa, V158 isoform (human, UniProt P08637 17-208, limits assumed); assay: SPR (Biacore); the reference value of native IgG1 (280 nM) is cited from the literature
T2 construct: no change against a named entry is printed; also called FcγRIIIa(158V); V158 FcγRIIIa
T2 sequence (P08637 17-208 F176V limits assumed): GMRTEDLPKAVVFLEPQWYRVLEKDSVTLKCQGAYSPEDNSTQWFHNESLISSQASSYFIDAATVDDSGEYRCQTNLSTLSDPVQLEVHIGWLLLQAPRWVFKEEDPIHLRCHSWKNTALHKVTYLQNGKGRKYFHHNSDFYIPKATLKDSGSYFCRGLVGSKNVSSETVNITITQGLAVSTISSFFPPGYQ
Description: Affinity of the mAb-Fv for FcγRIIIa was measured using Biacore®. The protein A capture format was used as described above, except that sensorgrams were obtained for a concentration series of receptor analyte in order to calculate an accurate affinity. […] Data were processed by zeroing time and response before the injection of receptor and by subtracting appropriate nonspecific signals (response of reference channel and injection of running buffer). The equilibrium constant was calculated by global fitting of binding data with a 1:1 Langmuir binding model using BIAevaluation software.
Similar binding experiments were carried out for the αHM1.24×αFcγRIIIa mAb-Fv. […] Data were processed by zeroing time and response before the injection of receptor and by subtracting appropriate nonspecific signals. The equilibrium constant was calculated by global fitting of binding data with a 1:1 Langmuir binding model using BIAevaluation software.

[3] = target: T2, FcγRIIIa, V158 isoform; assay: SPR (Biacore), 9518 captured (protein A by the text, HM1.24 by the legend of FIG. 16), receptor concentration series, 1:1 Langmuir global fit
Description: (§1) Binding measurements were performed using a Biacore® 3000 instrument (Biacore®). Antibodies were captured onto an immobilized Protein A (Pierce) CM5 biosensor chip (Biacore®), generated using a standard primary amine coupling protocol. All measurements were performed in HBS-EP (0.01 M HEPES pH 7.4, 0.15 M NaCl, 3 mM EDTA, 0.005% v/v surfactant P20), and glycine buffer (10 mM glycine-HCl, pH 1.5) was used for the Protein A surface regeneration. All antibodies (50 nM in HBS-EP) were immobilized on the Protein A surface. Fc receptors were injected over antibody bound surface, followed by a dissociation phase. After each cycle, the Protein A surface was regenerated by injecting glycine buffer (pH 1.5). Data were processed by zeroing time and response before the injection of receptor and by subtracting appropriate nonspecific signals (response of reference channel and injection of running buffer).
Data were processed by zeroing time and response before the injection of receptor and by subtracting appropriate nonspecific signals. The equilibrium constant was calculated by global fitting of binding data with a 1:1 Langmuir binding model using BIAevaluation software.

[4] = target: T3, FcγRIIb (human, UniProt P31994 43-217, limits assumed); assay: SPR (Biacore); the reference value of native IgG1 (2.3 µM) is cited from the literature
T3 construct: also called CD32b
T3 sequence (looked up): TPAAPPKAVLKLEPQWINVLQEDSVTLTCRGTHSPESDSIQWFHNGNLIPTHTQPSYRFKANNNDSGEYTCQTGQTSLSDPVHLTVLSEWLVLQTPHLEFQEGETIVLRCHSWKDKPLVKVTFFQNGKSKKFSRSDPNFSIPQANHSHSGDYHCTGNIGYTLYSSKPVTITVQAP

[5] = target: T3, FcγRIIb; assay: SPR (Biacore), 9547 captured on protein A, receptor concentration series, 1:1 Langmuir global fit
Description: as §1

binding result [1]: binds
fold tighter than native IgG1 [2]: ~2.9 fold
Kd [3]: 96 nM
B1: 9518 αHM1.24×αFcγRIIIa mAb-Fv (bispecific antibody, IgG1)
heavy 1: QVQLVQSGAEVKKPGASVKVSCKASGYTFTPYWMQWVRQAPGQGLEWMGSIFPGSGDTRYSQSFQGQVTISADKSISTAYMELSRLRSDDTAVYYCARGLRRGGYYFDYWGQGTLVTVSSASTKGPSVFPLAPSSKSTSGGTAALGCLVKDYFPEPVTVSWNSGALTSGVHTFPAVLQSSGLYSLSSVVTVPSSSLGTQTYICNVNHKPSNTKVDKKVEPKSCDKTHTCPPCPAPELLRGPSVFLFPPKPKDTLMISRTPEVTCVVVDVSHEDPEVKFNWYVDGVEVHNAKTKPREEQYNSTYRVVSVLTVLHQDWLNGKEYKCKVSNKARPAPIEKTISKAKGQPREPQVTTLPPSREEMTKNQVSLTCLVKGFYPSDIAVEWESNGQPENNYKTFPPVLDSDGSFFLYSKLTVDKSRWQQGNVFSCSVMHEALHNHYTQKSLSLSPGKSSDKTHTSPPSPGGGGSGGGGSGGGGSGGGGQVTLKESGPGILQPSQTLSLTCSFSGFSLRTSGMGVGWIRQPSGKGLEWLAHIWWDDDKRYNPALKSRLTISKDTSSNQVFLKIASVDTADTATYYCAQINPAWFAYWGQGTLVTVSASGHHHHHH
heavy 2: QVQLVQSGAEVKKPGASVKVSCKASGYTFTPYWMQWVRQAPGQGLEWMGSIFPGSGDTRYSQSFQGQVTISADKSISTAYMELSRLRSDDTAVYYCARGLRRGGYYFDYWGQGTLVTVSSASTKGPSVFPLAPSSKSTSGGTAALGCLVKDYFPEPVTVSWNSGALTSGVHTFPAVLQSSGLYSLSSVVTVPSSSLGTQTYICNVNHKPSNTKVDKKVEPKSCDKTHTCPPCPAPELLRGPSVFLFPPKPKDTLMISRTPEVTCVVVDVSHEDPEVKFNWYVDGVEVHNAKTKPREEQYNSTYRVVSVLTVLHQDWLNGKEYKCKVSNKARPAPIEKTISKAKGQPREPQVYTLPPSREEMTKNQVHLTCLVKGFYPSDIAVEWESNGQPENNYKTTPPVLDSDGSFALYSKLTVDKSRWQQGNVFSCSVMHEALHNHYTQKSLSLSPGKSSDKTHTSPPSPGGGGSGGGGSGGGGSGGGGDIVLTQSPASLAVSLGQRATISCKASQSVDFDGDSFMNWYQQKPGQPPKLLIYTTSNLESGIPARFSASGSGTDFTLNIHPVEEEDTATYYCQQSNEDPYTFGGGTKLELKSGDYKDDDDK
light: DIVMTQSPLSLPVTLGQPASISCKASQDVNTAVAWYLQKPGKSPKLLIYSASNRYTGVPDRITGSGSGTDFTLKISRVEAEDVGVYYCQQHYSTPFTFGSGTKLEIKRTVAAPSVFIFPPSDEQLKSGTASVVCLLNNFYPREAKVQWKVDNALQSGNSQESVTEQDSKDSTYSLSSTLTLSKADYEKHKVYACEVTHQGLSSPVTKSFNRGEC
notes: mAb-Fv, IgG1 G236R/L328R, hetero-Fc TF-HA, Linker 2; copies: 1 + 1 + 2

fold tighter than native IgG1 [4]: ~52 fold
Kd [5]: 44 nM
B2: 9547 αCD19×αFcγRIIb mAb-Fv (bispecific antibody, IgG1)
heavy 1: EVQLVESGGGLVKPGGSLKLSCAASGYTFTSYVMHWVRQAPGKGLEWIGYINPYNDGTKYNEKFQGRVTISSDKSISTAYMELSSLRSEDTAMYYCARGTYYYGTRVFDYWGQGTLVTVSSASTKGPSVFPLAPSSKSTSGGTAALGCLVKDYFPEPVTVSWNSGALTSGVHTFPAVLQSSGLYSLSSVVTVPSSSLGTQTYICNVNHKPSNTKVDKKVEPKSCDKTHTCPPCPAPELLRGPSVFLFPPKPKDTLMISRTPEVTCVVVDVSHEDPEVKFNWYVDGVEVHNAKTKPREEQYNSTYRVVSVLTVLHQDWLNGKEYKCKVSNKARPAPIEKTISKAKGQPREPQVTTLPPSREEMTKNQVSLTCLVKGFYPSDIAVEWESNGQPENNYKTFPPVLDSDGSFFLYSKLTVDKSRWQQGNVFSCSVMHEALHNHYTQKSLSLSPGKGGGGSGGGGSGGGGSGGGGSGGGGSGGGGQVQLQQPVTELVRPGASVMLSCKASDYPFTNYWIHWVKQRPGQGLEWIGVIDPSDTYPNYNKKFKGKATLTVVVSSSTAYMQLSSLTSDDSAVYYCARNGDSDYYSGMDYWGQGTSVTVSSGSHHHHHH
heavy 2: EVQLVESGGGLVKPGGSLKLSCAASGYTFTSYVMHWVRQAPGKGLEWIGYINPYNDGTKYNEKFQGRVTISSDKSISTAYMELSSLRSEDTAMYYCARGTYYYGTRVFDYWGQGTLVTVSSASTKGPSVFPLAPSSKSTSGGTAALGCLVKDYFPEPVTVSWNSGALTSGVHTFPAVLQSSGLYSLSSVVTVPSSSLGTQTYICNVNHKPSNTKVDKKVEPKSCDKTHTCPPCPAPELLRGPSVFLFPPKPKDTLMISRTPEVTCVVVDVSHEDPEVKFNWYVDGVEVHNAKTKPREEQYNSTYRVVSVLTVLHQDWLNGKEYKCKVSNKARPAPIEKTISKAKGQPREPQVYTLPPSREEMTKNQVHLTCLVKGFYPSDIAVEWESNGQPENNYKTTPPVLDSDGSFALYSKLTVDKSRWQQGNVFSCSVMHEALHNHYTQKSLSLSPGKGGGGSGGGGSGGGGSGGGGSGGGGSGGGGDILLTQSPAILSVSPGERVSFSCRTSQSIGTNIHWYQQRTNGFPRLLIKNVSESISGIPSRFSGSGSGTDFILSINSVESEDIADYYCQQSNTWPFTFGGGTKLEIKGSHHHHHH
light: DIVMTQSPATLSLSPGERATLSCRSSKSLQNVNGNTYLYWFQQKPGQSPQLLIYRMSNLNSGVPDRFSGSGSGTEFTLTISSLEPEDFAVYYCMQHLEYPITFGAGTKLEIKRTVAAPSVFIFPPSDEQLKSGTASVVCLLNNFYPREAKVQWKVDNALQSGNSQESVTEQDSKDSTYSLSSTLTLSKADYEKHKVYACEVTHQGLSSPVTKSFNRGEC
notes: mAb-Fv, IgG1 G236R/L328R, hetero-Fc TF-HA, Linker 3; also called 9547 mAb-Fv; copies: 1 + 1 + 2

Source: patent US20170058053A1 (Xencor, published 2017)
